The values below come from patent US20240352434, “COMPOSITIONS COMPRISING A VARIANT CAS12I3 POLYPEPTIDE AND USES THEREOF” (Arbor Biotechnologies, Inc., published 2024).

Substitutions are numbered along the chain they refer to.

In one series the target is T1, Cas12i3 T977R (Unidentified, T977R).
T1 chain: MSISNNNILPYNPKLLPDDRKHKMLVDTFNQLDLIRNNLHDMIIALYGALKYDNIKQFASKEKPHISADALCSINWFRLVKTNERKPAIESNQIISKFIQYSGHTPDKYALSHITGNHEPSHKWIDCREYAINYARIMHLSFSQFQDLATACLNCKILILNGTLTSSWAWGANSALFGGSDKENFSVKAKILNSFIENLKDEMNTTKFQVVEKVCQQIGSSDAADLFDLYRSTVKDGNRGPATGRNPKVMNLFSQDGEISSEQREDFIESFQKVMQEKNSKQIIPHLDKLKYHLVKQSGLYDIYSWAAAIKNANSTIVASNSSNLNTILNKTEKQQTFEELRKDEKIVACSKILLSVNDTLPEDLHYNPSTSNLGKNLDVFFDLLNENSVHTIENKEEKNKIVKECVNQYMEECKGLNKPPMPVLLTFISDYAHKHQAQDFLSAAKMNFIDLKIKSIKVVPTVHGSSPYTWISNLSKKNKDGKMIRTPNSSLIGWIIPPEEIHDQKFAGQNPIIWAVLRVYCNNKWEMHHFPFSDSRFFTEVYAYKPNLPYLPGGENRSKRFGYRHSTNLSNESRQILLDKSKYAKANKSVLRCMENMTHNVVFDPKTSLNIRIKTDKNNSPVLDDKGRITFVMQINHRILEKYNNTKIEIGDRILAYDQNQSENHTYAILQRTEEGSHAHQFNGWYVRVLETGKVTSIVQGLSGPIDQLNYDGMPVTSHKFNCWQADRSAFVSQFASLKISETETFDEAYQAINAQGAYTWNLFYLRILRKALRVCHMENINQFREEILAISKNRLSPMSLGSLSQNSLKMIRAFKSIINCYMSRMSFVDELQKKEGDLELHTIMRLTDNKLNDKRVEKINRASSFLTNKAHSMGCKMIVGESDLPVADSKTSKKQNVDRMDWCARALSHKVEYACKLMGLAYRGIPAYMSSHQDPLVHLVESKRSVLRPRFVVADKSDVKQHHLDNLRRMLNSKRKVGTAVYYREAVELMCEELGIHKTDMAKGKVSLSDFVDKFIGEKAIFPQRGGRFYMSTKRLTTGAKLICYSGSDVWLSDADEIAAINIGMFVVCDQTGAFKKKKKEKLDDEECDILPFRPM
In words: cell_activity; fold change in % indels, HEK293T; PAM not stated in example. Here is the method: (§1) Approximately 16 hours prior to transfection, 100 μl of 25,000 HEK293T cells in DMEM/10% FBS+Pen/Strep were plated into each well of a 96-well plate. On the day of transfection, the cells were 70-90% confluent. For each well to be transfected, a mixture of 0.5 μl of Lipofectamine 2000 and 9.5 μl of Opti-MEM was prepared and then incubated at room temperature for 5-20 minutes (Solution 1). […] In the case of negative controls, the crRNA was not included in Solution 2. The solution 1 and solution 2 mixtures were mixed by pipetting up and down and then incubated at room temperature for 25 minutes. Following incubation, 20 μL of the Solution 1 and Solution 2 mixture were added dropwise to each well of a 96 well plate containing the cells. 72 hours post transfection, cells are trypsinized by adding 10 μL of TrypLE to the center of each well and incubated for approximately 5 minutes. 100 μL of D10 media was then added to each well and mixed to resuspend cells. The cells were then spun down at 500 g for 10 minutes, and the supernatant was discarded. QuickExtract buffer was added to ⅕ the amount of the original cell suspension volume. Cells were incubated at 65° C. for 15 minutes, 68° C. for 15 minutes, and 98° C. for 10 minutes.
(§2) Samples for Next Generation Sequencing were prepared by two rounds of PCR. The first round (PCR1) was used to amplify specific genomic regions depending on the target. PCR1 products were purified by column purification. Round 2 PCR (PCR2) was done to add Illumina adapters and indexes. Reactions were then pooled and purified by column purification. Sequencing runs were done with a 150 cycle NextSeq v2.5 mid or high output kit.

For a further series, the target named is T2, Cas12i3 R565G (Unidentified, R565G).
T2 chain: T1 chain with R565G, R977T
The series is described as above. Here is the method:
as §1, §2

B1: EMX1_T5 crRNA ; EMX1_T5 target (ssRNA ; dsDNA)
RNA: AUAGUGUGUCCUUAGUUGACAUUAUUAUUCCCAUAGGGAAGG
DNA 1: TATTATTCCCATAGGGAAGG
DNA 2: CCTTCCCTATGGGAATAATA
Turning to B1, the results for the binding signal with Cas12i3 T977R and with Cas12i3 R565G were 1.04 fold of wild-type and 1.21 fold of wild-type, respectively.

B2: AAVS1_T3 crRNA ; AAVS1_T3 target (ssRNA ; dsDNA)
RNA: AUAGUGUGUCCUUAGUUGACAUGUGAGAAUGGUGCGUCCUAG
DNA 1: GTGAGAATGGTGCGTCCTAG
DNA 2: CTAGGACGCACCATTCTCAC
With B2, the binding signal in the series with Cas12i3 T977R was 2.37 fold of wild-type; in the series with Cas12i3 R565G, 1.86 fold of wild-type.

B3: VEGFA_T2 crRNA ; VEGFA_T2 target (ssRNA ; dsDNA)
RNA: AUAGUGUGUCCUUAGUUGACAUAAUCCUCCACCAGUCAUGGU
DNA 1: AATCCTCCACCAGTCATGGT
DNA 2: ACCATGACTGGTGGAGGATT
Turning to B3, the results for the binding signal in the series with Cas12i3 T977R and in the series with Cas12i3 R565G were 1.35 fold of wild-type and 0.73 fold of wild-type, respectively.
